According to the supplement of paper PMC10724198:
± gives the standard deviation of the averaged measurements.

System: Saccharomyces cerevisiae
Assay: protein stability index of tFT-peptide fusion (C-terminal peptide) (PSI (0-1 scale)); higher = more stable (slower turnover)
Details: genetic background: wild type; temperature: 30 C
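Also: PSI is a weighted mean of sequencing reads over stability bins, variants kept only with over 10 reads, mCherry proximal and sfGFP distal, peptide attached via GGGS linker.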

| Sequence | protein stability index |
| --- | --- |
| LRLLCVSGSSVR | 0.638 ± 0.065 |
| SPAPRPSPVPGL | 0.686 ± 0.015 |
| RLDFFIFSRWWI | 0.727 ± 0.031 |
| PRSPPPPPSYSP | 0.703 ± 0.13 |
| PPPPPFLPPPRL | 0.749 ± 0.011 |
| RERNNISVKGKL | 0.679 ± 0.049 |
| GSSGRFFHVVVF | 0.644 ± 0.074 |
| SVILRMIGQKIK | 0.596 ± 0.038 |
| DGSRSFSYSTAG | 0.642 ± 0.1 |
| FYSRSVTLEVLH | 0.605 ± 0.023 |
| CVDTNIERSCVC | 0.66182 ± 0.00042 |
| VSSSQPGEYNIG | 0.7088 ± 0.0029 |
| RKNGEDLKKRGT | 0.726 ± 0.077 |
| KHGLSDRAPLPK | 0.698 ± 0.05 |
| NFPVLLSISALL | 0.548 ± 0.072 |
| APIQPRAPPRAP | 0.669 ± 0.017 |
| PDTLCAYLSFGS | 0.776 ± 0.064 |
| ARACPLCFVMMF | 0.559 ± 0.013 |
| PPHPPNFSSPPP | 0.656 ± 0.023 |
| DGAVRLGGGGLG | 0.664 ± 0.05 |
| SVDRVIPQERQS | 0.697 ± 0.013 |
| PLFTPPPVLHHP | 0.752 ± 0.031 |
| LPLALSAPPAQP | 0.683 ± 0.042 |
| PPHPPPPSPTPP | 0.656 ± 0.019 |
| GGGWSRRGVGDR | 0.673 ± 0.028 |

| Sequence | protein stability index |
| --- | --- |
| IAATTVVRPAFC | 0.66 ± 0.0083 |
| APPPPPFPPPCA | 0.694 ± 0.049 |
| LRAVRDSLMSQC | 0.681 ± 0.033 |
| AHPPPSPPFPRH | 0.658 ± 0.015 |
| VERRTDRNLGSV | 0.645 ± 0.007 |
| ILLLKFSKLNKK | 0.66 ± 0.033 |
| LPDLSPIRRCPL | 0.694 ± 0.04 |
| RHRFDHWGPGPW | 0.72 ± 0.055 |
| PPLTVRPFPFRV | 0.662 ± 0.015 |
| AEEWPVRAGGRG | 0.609 ± 0.056 |
| GYKLSIQGYNRK | 0.675 ± 0.014 |
| VRERWNTKKKKK | 0.64 ± 0.057 |
| SSPLYSLLVLFQ | 0.54 ± 0.037 |
| GESTNVYTTHWI | 0.736 ± 0.011 |
| PLFPSPSPPRHP | 0.7435 ± 0.0018 |
| FNCIFHMLRFLR | 0.656 ± 0.074 |
| GFGCVGSIFVIY | 0.66 ± 0.018 |
| RKTRKKNRIRGI | 0.6857 ± 0.0054 |
| SPPHTGMLRLLT | 0.7 ± 0.063 |
| CMFSSTSSTNVN | 0.731 ± 0.085 |
| ACPDARNAGTQR | 0.708 ± 0.022 |
| LRTLVARWIVGQ | 0.515 ± 0.021 |
| GAILQVEAITHN | 0.657 ± 0.068 |
| ASRYPVPLQPHH | 0.6982 ± 0.0044 |
| FFSLVHVLFYGF | 0.54037 ± 0.00016 |

| Sequence | protein stability index |
| --- | --- |
| PPPPPHRTPHPS | 0.727 ± 0.096 |
| GKEGGRERVANE | 0.639 ± 0.091 |
| PLFPGLARLSSS | 0.703 ± 0.031 |
| VPISLSVVVLPV | 0.569 ± 0.017 |
| IGTSGFFSSQAS | 0.743 ± 0.065 |
| RGSYLAFRVYGP | 0.648 ± 0.03 |
| GGGGGVSGGGVF | 0.672 ± 0.063 |
| FTSGNSWLAVFL | 0.731 ± 0.027 |
| PNTNIRTHCQWI | 0.709 ± 0.02 |
| RRRPSPKASILS | 0.719 ± 0.011 |
| KLFWYLDCKLLY | 0.579 ± 0.0073 |
| AEGYRGECSGCM | 0.622 ± 0.052 |
| RGGWGGGDCVGA | 0.688 ± 0.09 |
| FPPRPPPSPSAH | 0.675 ± 0.027 |
| GLMSVRYSGTGV | 0.6743 ± 0.006 |
| EWCAVYDQGNRF | 0.818 ± 0.11 |
| CLSLPFSLFPLM | 0.619 ± 0.068 |
| KVFTQGPGRMLE | 0.758 ± 0.021 |
| GVVGGWRGAGWR | 0.736 ± 0.064 |
| PSFPRSPHTAPH | 0.746 ± 0.022 |
| ARGGGPERIHPE | 0.66362 ± 0.00048 |
| PTWGRSDESKAM | 0.744 ± 0.0099 |
| LCPDFSLQWSFD | 0.759 ± 0.019 |
| YRHYVKLGPKPF | 0.668 ± 0.024 |
| PPPPPALPSPPP | 0.631 ± 0.025 |

| Sequence | protein stability index |
| --- | --- |
| TLESRPALVFFS | 0.681 ± 0.0088 |
| CFWSVIGVQFEV | 0.629 ± 0.0095 |
| VAPPRQGSPASR | 0.725 ± 0.057 |
| PPPRPPPAPLAS | 0.705 ± 0.027 |
| EWNWRSVYGFGE | 0.748 ± 0.027 |
| LSSTGFDLWSLL | 0.769 ± 0.067 |
| ASPSAPPRPPTP | 0.697 ± 0.013 |
| TPDLNLYSKVYG | 0.695 ± 0.048 |
| ALRGRTTPPSHT | 0.726 ± 0.086 |
| LGLRSGQGPVTL | 0.7746 ± 0.00092 |
| MIVSILRSRSFS | 0.557 ± 0.0066 |
| GIKKKKKKQDKK | 0.728 ± 0.076 |
| SKLTKQQKRTKS | 0.665 ± 0.055 |
| GYDEREKPVLLR | 0.753 ± 0.042 |
| VIWAPVLAFSVR | 0.638 ± 0.051 |
| GKYQQGFQKVTR | 0.668 ± 0.025 |
| VSLCGSGLGLWV | 0.682 ± 0.033 |
| PHPQPRPTAPSP | 0.7177 ± 0.002 |
| RSSPVPLSCRKG | 0.66 ± 0.037 |
| PLPLPSPAPPYS | 0.68 ± 0.013 |
| LLLLNSFFISPP | 0.742 ± 0.027 |
| ARFYPPLPTDSL | 0.708 ± 0.056 |
| PGLIPSPRYLLP | 0.656 ± 0.024 |
| TTRLARNEQVKR | 0.62 ± 0.1 |
| KNFGHQGDVCRR | 0.734 ± 0.037 |

| Sequence | protein stability index |
| --- | --- |
| GKNKSKKEKKEK | 0.668 ± 0.032 |
| HPTFARIPPIPP | 0.525 ± 0.0088 |
| SRPFLPPSPRPA | 0.757 ± 0.11 |
| QVFITGHQLCVM | 0.535 ± 0.0064 |
| RPHVLAHSLLLS | 0.584 ± 0.011 |
| SLSQWTSPGLNI | 0.708 ± 0.091 |
| SRLPSPFPSPPL | 0.737 ± 0.019 |
| TLWENEKNNKHG | 0.705 ± 0.024 |
| GGEGRGRVWEIS | 0.686 ± 0.068 |
| SLSFTFPLAPLL | 0.643 ± 0.12 |
| TLTLVIPTSRDQ | 0.717 ± 0.064 |
| CVLFSGLSVDGC | 0.7215 ± 0.004 |
| LPAPPPPPPSPL | 0.71 ± 0.074 |
| APPPPPPAPPLP | 0.591 ± 0.028 |
| SVGCRRGMDSRV | 0.702 ± 0.04 |
| VGVGGGSVASCV | 0.671 ± 0.018 |
| VSPAPSAILRLD | 0.6765 ± 0.0025 |
| GVFFVRAGSVYC | 0.579 ± 0.019 |
| GGRGGEGRGGSG | 0.658 ± 0.018 |
| GRGLGRVMRGRV | 0.6182 ± 0.0059 |
| RRRGTYTYSLLL | 0.73 ± 0.014 |
| VRRGGGHRWVVW | 0.705 ± 0.016 |
| LIISDVTGFSHL | 0.6576 ± 0.0029 |
| SGPTPCRSPRLL | 0.636 ± 0.051 |
| MTYSVWENVLTW | 0.733 ± 0.032 |

| Sequence | protein stability index |
| --- | --- |
| KEQKNNRKVTKK | 0.715 ± 0.046 |
| SLFFFLFSPSCL | 0.691 ± 0.075 |
| PDRQVTAFPCFW | 0.6787 ± 0.0051 |
| PPTRPFHLFDHL | 0.716 ± 0.029 |
| GGGREGEIGGGG | 0.5705 ± 0.0013 |
| SVGSSGFMLFCL | 0.741 ± 0.18 |
| CVPLPCLPLPPS | 0.66 ± 0.012 |
| SAIGVGGGGTGG | 0.676 ± 0.0082 |
| SPPVTASLCLFS | 0.692 ± 0.016 |
| VRLPLHHPIPNS | 0.7179 ± 0.0063 |
| PSPPDTDTPIPL | 0.691 ± 0.034 |
| SSRCRGYLFVDG | 0.738 ± 0.043 |
| ARHESRPTHSAQ | 0.6924 ± 0.0046 |
| GVLVGGERRWVL | 0.699 ± 0.053 |
| TQNYPSAFAIPA | 0.552 ± 0.043 |
| PSPPSAKLRRTP | 0.72 ± 0.057 |
| DCPHGDSPRVVS | 0.628 ± 0.046 |
| PSALSEQQANGF | 0.6838 ± 0.0022 |
| YRLRAFLSMTQQ | 0.616 ± 0.01 |
| VNRDYLGTNKSS | 0.604 ± 0.017 |
| AFAFSVLTGWGV | 0.638 ± 0.072 |
